According to paper PMC4159138, “Fission Yeast Pxd1 Promotes Proper DNA Repair by Activating Rad16^XPF and Inhibiting Dna2” (PLoS Biology, 2014):

T1: RPA (UniProt Q92372;Q92373;Q92374 1-609;1-279;1-104)
T1 sequence 1: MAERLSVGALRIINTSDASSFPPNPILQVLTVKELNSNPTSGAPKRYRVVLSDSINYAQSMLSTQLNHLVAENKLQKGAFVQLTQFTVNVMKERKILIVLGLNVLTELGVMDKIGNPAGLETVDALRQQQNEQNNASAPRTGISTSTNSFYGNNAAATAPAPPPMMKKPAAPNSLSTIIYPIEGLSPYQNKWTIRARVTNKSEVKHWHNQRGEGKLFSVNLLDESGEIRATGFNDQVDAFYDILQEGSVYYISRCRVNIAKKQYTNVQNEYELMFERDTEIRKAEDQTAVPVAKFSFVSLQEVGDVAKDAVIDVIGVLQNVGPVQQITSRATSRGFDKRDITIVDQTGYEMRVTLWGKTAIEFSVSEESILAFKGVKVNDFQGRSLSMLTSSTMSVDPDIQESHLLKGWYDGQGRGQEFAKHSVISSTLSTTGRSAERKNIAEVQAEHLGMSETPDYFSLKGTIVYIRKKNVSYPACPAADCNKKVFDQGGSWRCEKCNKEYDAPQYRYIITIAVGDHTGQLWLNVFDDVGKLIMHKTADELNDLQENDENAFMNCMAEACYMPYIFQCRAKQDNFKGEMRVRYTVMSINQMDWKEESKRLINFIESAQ
T1 sequence 2: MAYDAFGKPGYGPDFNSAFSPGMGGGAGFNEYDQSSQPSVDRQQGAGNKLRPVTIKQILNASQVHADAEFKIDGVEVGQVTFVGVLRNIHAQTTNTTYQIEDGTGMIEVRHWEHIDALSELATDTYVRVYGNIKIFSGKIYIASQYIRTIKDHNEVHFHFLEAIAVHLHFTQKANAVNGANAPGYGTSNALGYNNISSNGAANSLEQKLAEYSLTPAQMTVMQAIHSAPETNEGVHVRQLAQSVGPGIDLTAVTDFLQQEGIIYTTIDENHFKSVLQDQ
T1 sequence 3: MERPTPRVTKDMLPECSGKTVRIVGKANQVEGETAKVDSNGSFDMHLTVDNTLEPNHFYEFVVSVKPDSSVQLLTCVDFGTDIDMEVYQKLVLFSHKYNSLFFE

T2: Dna2 co-overexpressed with Cdc24-YFH and purified from fission yeast (S. pombe, UniProt Q9URU2 1-1397)
T2 construct: Dna2, S. pombe; The Dna2 chain of m29, written alone for the cross-links with Cdc24; source: fission yeast pxd1Δ cells, co-overexpressed with Cdc24-YFH, purified (anti-FLAG beads)
T2 sequence (looked up): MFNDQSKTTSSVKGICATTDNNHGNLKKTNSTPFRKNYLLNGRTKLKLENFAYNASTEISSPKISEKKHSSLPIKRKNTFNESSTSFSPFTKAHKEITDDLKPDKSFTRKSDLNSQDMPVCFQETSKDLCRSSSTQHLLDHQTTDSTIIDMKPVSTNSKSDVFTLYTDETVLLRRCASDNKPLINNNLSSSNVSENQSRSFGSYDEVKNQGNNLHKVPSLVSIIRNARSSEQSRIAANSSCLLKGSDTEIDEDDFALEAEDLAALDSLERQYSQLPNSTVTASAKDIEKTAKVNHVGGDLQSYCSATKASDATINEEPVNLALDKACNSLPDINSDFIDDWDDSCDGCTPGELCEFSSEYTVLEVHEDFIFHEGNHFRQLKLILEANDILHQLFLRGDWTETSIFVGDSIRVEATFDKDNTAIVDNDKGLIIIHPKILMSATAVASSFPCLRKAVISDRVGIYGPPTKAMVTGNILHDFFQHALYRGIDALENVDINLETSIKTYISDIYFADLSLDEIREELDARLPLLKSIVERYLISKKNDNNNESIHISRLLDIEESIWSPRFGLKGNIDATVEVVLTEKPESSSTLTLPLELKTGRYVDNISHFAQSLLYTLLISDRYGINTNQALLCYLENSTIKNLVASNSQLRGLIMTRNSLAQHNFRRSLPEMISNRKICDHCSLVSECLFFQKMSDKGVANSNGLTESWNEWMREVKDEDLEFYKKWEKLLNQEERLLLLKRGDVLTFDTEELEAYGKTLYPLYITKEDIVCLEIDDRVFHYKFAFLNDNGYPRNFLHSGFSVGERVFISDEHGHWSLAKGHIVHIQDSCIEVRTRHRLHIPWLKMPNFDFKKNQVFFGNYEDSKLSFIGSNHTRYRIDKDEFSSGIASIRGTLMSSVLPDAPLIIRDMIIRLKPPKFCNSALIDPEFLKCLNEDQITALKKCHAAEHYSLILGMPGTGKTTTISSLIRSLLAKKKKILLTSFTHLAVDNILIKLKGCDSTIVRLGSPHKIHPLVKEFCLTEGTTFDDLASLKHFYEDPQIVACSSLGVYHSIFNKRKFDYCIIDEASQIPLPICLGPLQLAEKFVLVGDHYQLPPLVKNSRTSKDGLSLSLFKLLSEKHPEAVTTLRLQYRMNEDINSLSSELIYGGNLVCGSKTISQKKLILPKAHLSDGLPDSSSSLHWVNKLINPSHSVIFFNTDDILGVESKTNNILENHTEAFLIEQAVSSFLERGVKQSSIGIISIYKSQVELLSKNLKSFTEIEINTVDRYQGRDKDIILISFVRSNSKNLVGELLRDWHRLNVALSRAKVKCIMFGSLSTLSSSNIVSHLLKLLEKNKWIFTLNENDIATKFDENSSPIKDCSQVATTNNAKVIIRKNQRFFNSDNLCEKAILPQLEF


Tests used:
RPA = target: T1, RPA; test: EMSA; 1 mM EDTA; 50 ng RPA; 50 mM Tris-HCl pH 7.5, 1 mM EDTA, 1 mM DTT, 0.1 mg/ml BSA, 50 mM NaCl, 5% glycerol, 15 fmol DNA in 10 µl, room temperature 30 min; 5% PAGE in 1x TBE; conditions: protein: recombinant; tags: 6xHis-GST on Rpa1 in plasmid pDB2129; copies: 1;1;1; label: 5' 32P on oligo461; 18 bp duplex with 5' overhang 31 nt on oligo461
[1] = target: T2, Dna2 co-overexpressed with Cdc24-YFH …; test: cross-linking; CXMS: Dna2-Cdc24-Pxd1(227–351) complex formed on anti-FLAG beads and eluted with 3× FLAG peptide; about 12 µg cross-linked by BS3 or DSS (0.5 mM, 1 h, room temperature), trypsin, LC-MS/MS, pLink; conditions: both partners purified

Binder | binding result (RPA) | binding result [1]
5' overhang DNA (oligo461/oligo463) (dsDNA) DNA 1: CACGCTACCGAATTCTGACTTGCTAGGACATCTTTGCCCACGTTGACCC DNA 2: GGGTCAACGTGGGCAAAG | binds | 
Cdc24-YFH co-overexpressed with Dna2 and purified from fission yeast (natural protein, S. pombe, UniProt O75004 1-501, looked up, Cdc24, S. pombe; The Cdc24 chain of m29, written alone for the cross-links; source: fission yeast pxd1Δ cells, co-overexpressed with Dna2, purified (anti-FLAG beads)) MDFPGLIKKIKEDLENRLVEKSKQPAFTDYWLINKTISLLKEYPSGFSYPILINEIELACSERNKLDNVFSSLEWLTKSDAVIYLEDQFHFHCYDYYYTPIPSLKLKDSEENTCEMILHSSFYLLFHEPFNILKGSTLRFSQSRIHQKWYLRKQIRFLPTTSFVPVLQYAASKSFVKSMVESTEHEFFQIRDITISKSDQGVKRITVELGRIISLDKKGAFLIDNNTNFIHFSGTYHDFPKLLDKQQYLLIPFWSTVWEGSTNWQDGMIGILVILSENDFEEKKCDSWQVGRLAAVNSNFLVLDNNGQRVKILYSNSQKHYFKDTYIGDLLCISPINHSSDNLSDYSCVSDTTTEILSNLENPLSSNFLRNDLCKFSNLFSGVSGHLKIQPLTLVITGFVANLTRQSDLNTSLVLPEVNPLTAKMEVIDCLRNSFWAALRPNCVSYFASMISGFKELFQKEMEFPIYLDLKSYKLGFHWCDIYVDSEHNCHIQKINSLPCE |  | binds
